Assay results published in patent US20240182549A1, “PEPTIDES AND ANTIBODY FUSIONS THAT BIND TO SARS-COV-2 AND METHODS OF USING SAME” (priority 2021, published 2024).
Ends that are not written are not given here.

Experiments:
S protein ECD [1] = biological target: T1, S protein ECD (Severe acute respiratory syndrome coronavirus 2, UniProt P0DTC2, K986P/R682S/R683S/R685S/V987P)
SARS-CoV-2 S protein = SARS-CoV-2 S protein (Severe acute respiratory syndrome coronavirus 2, UniProt P0DTC2, K986P/R682S/R683S/R685S/V987P)
S protein ECD [2] = biological target: T1, S protein ECD; remark: listed apart in the source

Substance	peptide-phage binding to ECD blocked by NTD-binding antibodies (S protein ECD [1])	peptide-phage binding to ECD blocked by RBD-binding antibodies (S protein ECD [1])	affinity improvement over 15033 (SARS-CoV-2 S protein)	binding to S protein ectodomain (in words) (S protein ECD [2])
p102 (ECWEWSYQLQEWSPCP; not fully specified; cysteine pairing not given here)	not by those that bound to the NTD	blocked		
p16 (DFDFAENWMEQLKVML; not fully specified)	blocked	not by those that bound to the ACE2-binding site of the RBD	significant affinity improvement	did not exhibit detectable binding
